Measured values reported in publication PMC7588459 (Scientific Reports, 2020).

Assays:
[1] = biological target: T1, Nipah virus attachment (receptor-binding) glycoprotein (GP), wild type (Nipah virus; strain of the assayed …, UniProt Q9IH62); assay: BLI; details: both partners purified
T1 construct: source: HEK 293-F FreeStyle, transiently transfected, purified from supernatant (Ni-NTA)

[2] = biological target: T1, Nipah virus attachment …; assay: ELISA; details: both partners purified

B1: monoclonal antibody m102.4 (wild type) (antibody, V domains shown)
VH: EVQVIQSGADVKKPGSSVKVSCKSSGGTFSKYAINWVRQAPGQGLEWMGGIIPILGIANYAQKFQGRVTITTDESTSTAYMELSSLRSEDTAVYYCARGWGREQLAPHPSQYYYYYYGMDVWGQGTTVTVSS
VL: EIVMTQSPGTLSLAPGERATLSCWASQSVRNNYLAWYQQKPGQAPRLVIYNGSTRATGIPDRFSGSGSGTDFTLTISRLDPEDFAVYYCQQYGNSRRVTFGGGTKVEIK
notes: also called wild-type Nipah antibody; anti-Nipah mAb
Work on B1 yielded a Kd [1] of 0.07 ± 0.01 nM, a koff [1] of 4.53e-05 s⁻¹ and a kon [1] of 646000 M⁻¹ s⁻¹. It also gave a Kd [2] of 0.12 nM.
